Source: US20230399377A1
Where two headings read alike, the source gives them in different places.

Columns and labels:
[1] = target: recombinant human VEGF-C (human) (UniProt P49767)
[2] = target: recombinant human VEGF-C (human) (UniProt P49767); remark: listed apart in the source
[3] = target: recombinant human VEGF-D (human) (UniProt O43915)
[4] = target: recombinant human VEGF-C (human) (UniProt P49767); remark: listed apart in the source
human PlGF (human) [5] = target: T1, human PlGF (human) (UniProt P49763); experiment: SPR Biacore; Fc fusion captured on anti-human IgG (Fc) antibody chip, PlGF as analyte, 1:1 model
T1 sequence (looked up): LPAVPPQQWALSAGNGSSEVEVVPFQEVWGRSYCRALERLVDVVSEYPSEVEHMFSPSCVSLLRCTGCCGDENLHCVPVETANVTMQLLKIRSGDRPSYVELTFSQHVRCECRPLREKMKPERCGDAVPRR

[6] = target: recombinant human VEGF-A165 (human) (UniProt P15692)
Chain of recombinant human VEGF-A165 (human) (P15692 other isoform, or with tags, fused parts or gaps limits assumed): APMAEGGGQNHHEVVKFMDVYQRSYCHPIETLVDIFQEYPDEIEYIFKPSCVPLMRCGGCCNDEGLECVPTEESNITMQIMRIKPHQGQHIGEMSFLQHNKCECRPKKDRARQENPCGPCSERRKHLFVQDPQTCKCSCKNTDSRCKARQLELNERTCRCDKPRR

[7] = target: recombinant human VEGF-A165 (human) (UniProt P15692); remark: listed apart in the source
[8] = target: recombinant human VEGF-A165 (human) (UniProt P15692); remark: listed apart in the source
[9] = target: recombinant human VEGF-A165 (human) (UniProt P15692); experiment: SPR Biacore; Fc fusion captured on anti-human IgG (Fc) antibody chip, VEGF-A165 as analyte, 1:1 model
[10] = target: T2, human VEGF-B 167/189 (human) (UniProt P49765); experiment: SPR Biacore; Fc fusion captured on anti-human IgG (Fc) antibody chip, VEGF-B167/189 as analyte, 1:1 model
T2 sequence (looked up): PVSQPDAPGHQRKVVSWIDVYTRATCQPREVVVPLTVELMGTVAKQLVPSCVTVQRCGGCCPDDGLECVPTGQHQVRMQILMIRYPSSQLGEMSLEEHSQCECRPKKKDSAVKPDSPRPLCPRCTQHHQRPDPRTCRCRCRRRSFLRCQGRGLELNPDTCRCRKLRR

human PlGF (human) [11] = target: T1, human PlGF (human); experiment: SPR Biacore; Fc fusion captured on anti-human IgG (Fc) antibody chip, PlGF as analyte, 1:1 model; remark: listed apart in the source

Chain of recombinant human VEGF-C (human) (P49767 103-227 limits assumed): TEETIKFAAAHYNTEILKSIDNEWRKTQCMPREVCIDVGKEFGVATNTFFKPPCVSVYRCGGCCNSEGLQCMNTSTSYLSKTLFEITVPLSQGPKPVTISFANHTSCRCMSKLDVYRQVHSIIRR
Chain of aflibercept (Fc fusion) (chain): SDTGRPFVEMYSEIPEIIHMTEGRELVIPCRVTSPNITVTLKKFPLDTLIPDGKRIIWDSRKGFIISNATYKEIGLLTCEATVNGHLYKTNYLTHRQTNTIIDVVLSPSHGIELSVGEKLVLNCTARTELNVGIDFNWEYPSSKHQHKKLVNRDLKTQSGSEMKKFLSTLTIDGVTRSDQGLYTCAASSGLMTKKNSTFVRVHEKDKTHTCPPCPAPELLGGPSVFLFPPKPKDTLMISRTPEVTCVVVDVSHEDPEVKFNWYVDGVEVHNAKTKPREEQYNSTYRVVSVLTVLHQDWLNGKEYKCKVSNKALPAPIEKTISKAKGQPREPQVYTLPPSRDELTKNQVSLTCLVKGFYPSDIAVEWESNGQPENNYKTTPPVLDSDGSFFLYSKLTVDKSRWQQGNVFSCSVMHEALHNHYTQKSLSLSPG
Chain of recombinant human VEGF-D (human) (O43915 93-201 limits assumed): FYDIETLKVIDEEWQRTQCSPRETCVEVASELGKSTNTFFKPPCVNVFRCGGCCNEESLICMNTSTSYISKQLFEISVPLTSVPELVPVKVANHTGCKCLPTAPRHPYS

IC50, inhibition of VEGF-C (40 ng/mL on the sheet) mediated HLEC proliferation, alamarBlue reduction [1] | IC50, inhibition of VEGF-C (25 ng/mL) mediated VEGFR-2 signaling, VEGFR-2-NFAT-RE luciferase reporter cells [2] | IC50, MIXED STIMULUS VEGF-C (25 ng/mL) + VEGF-D (150 ng/mL): inhibition of HLEC proliferation, alamarBlue reduction; one IC50 for the mixture [3] | IC50, MIXED STIMULUS VEGF-C (25 ng/mL) + VEGF-D (150 ng/mL): inhibition of HLEC proliferation, alamarBlue reduction; one IC50 for the mixture [4] | Kd (human PlGF (human) [5]) | IC50, inhibition of VEGF-A165 (60 ng/mL) mediated VEGFR-2 signaling, VEGFR-2-NFAT-RE luciferase reporter cells [6] | IC50, inhibition of VEGF-A165 (60 ng/mL) mediated VEGFR-2 signaling, VEGFR-2-NFAT-RE luciferase reporter cells [7] | IC50, inhibition of VEGF-A165 (100 ng/mL on the sheet) mediated HLEC proliferation, alamarBlue reduction [8] | Kd [9] | Kd [10] | Kd (human PlGF (human) [11]) | Substance
1.47 nM | 0.0093 nM | 1.26 nM | 1.26 nM |  |  |  |  |  |  |  | recombinant human VEGFR-3 containing 7 extracellular domains (from UniProt P35916 25-775) (receptor)
 |  |  |  | 0.48 nM | 0.41 nM | 0.39 nM | 1.18 nM | 0.0336 nM | 0.0173 nM | 0.484 nM | aflibercept (Fc fusion)
